From patent publication US20250134947A1, “TRI-, TETRA AND PENTAPEPTIDES, COMPOSITIONS THEREOF AND THEIR USE IN THE THERAPY OF PSORIASIS” (ENUMITA AS, priority 2021, published 2025)

Biological target: T1, transformation of SerpinB3 to Pso p27 with chymase (Homo sapiens, UniProt P29508)
T1 construct: made in house; host or cells: Escherichia coli BL21 (DE3) RIPL (Stratagene)
T1 sequence (P29508 1-390): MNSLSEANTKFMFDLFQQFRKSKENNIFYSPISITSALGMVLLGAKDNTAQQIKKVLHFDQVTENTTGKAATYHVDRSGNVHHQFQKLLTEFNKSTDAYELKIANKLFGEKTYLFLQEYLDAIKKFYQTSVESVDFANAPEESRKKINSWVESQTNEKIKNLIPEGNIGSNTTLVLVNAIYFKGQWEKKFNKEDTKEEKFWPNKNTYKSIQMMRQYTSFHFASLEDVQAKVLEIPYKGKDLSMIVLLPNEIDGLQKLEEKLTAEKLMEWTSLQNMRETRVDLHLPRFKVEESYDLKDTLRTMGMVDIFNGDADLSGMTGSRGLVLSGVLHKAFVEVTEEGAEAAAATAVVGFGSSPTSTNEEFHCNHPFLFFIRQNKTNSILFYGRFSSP
Assay: Test of peptides: inhibition of chymase transformation of SerpinB3 to Pso p27, SDS-gel-electrophoresis
Format: biochemical
Settings: SerpinB3 2 μg in 35 μl PBS, peptide 5 μl (10 mg/ml) 1 hour at 37C°, then 1 μl chymase over night at 37C°
Method: In this Example, peptides were tested in order to find out whether they are able to prevent and/or inhibit the formation of Pso p27. The peptides were purchased from Biomatik Corporation, 4 Third Ave, Kitchener, Ontario, N2C 1N6, Canada, and analyzed with respect to prevention and/or inhibiting potential. The following methods were used:
Expression vector pMCSG7 Serpin B3 (Clone ID: HsCD00343153) was used. Recombinant SerpinB3 was expressed in Escherichia coli BL21 (DE3) RIPL (Stratagene) and purified as described by Lysvand H, Helland R, Hagen L, Slupphaug G, Iversen OJ., “Psoriasis pathogenesis-Pso p27 is generated from SCCA 1 with chymase”, Biochim. Biophys. Acta 1842 (2014) 734-738.
SerpinB3 solved in phosphate-buffered saline (PBS) (2 μg in 35 μl PBS) was incubated with a tripeptide or tetrapeptide 5 μl (10 mg/ml) for 1 hour at 37C°. 1 μl chymase was added and the mixture was incubated over night at 37C°. The solution was analyzed by SDS-gel-electrophoresis.
SDS-gel-electrophoresis was performed as described by Iversen O J, Lysvand H, Hagen L., “The autoantigen Pso p27: a post-translational modification of SCCA molecules”, Autoimmunity 44 (2011) 229-234.

Substance	prevention and/or inhibition of the cleavage reaction of the serpin molecules SerpinB3/B4, and/or prevention and/or inhibition of the formation of Pso p27
Asp-Asp-Lys-Pro (DDKP) [tetrapeptide]	effective
Asp-Asp-Pro [DDP]	effective
Asp-Asp-Pro-Lys (DDPK) [tetrapeptide]	effective
Asp-Glu-Leu-Pro (DELP) [tetrapeptide]	effective
Asp-Glu-Pro [DEP]	effective
Asp-Glu-Pro-Asn (DEPN) [tetrapeptide]	effective
Asp-Glu-Pro-Leu (DEPL) [tetrapeptide]	effective
Asp-Pro-Glu [DPE]	effective
Glu-Pro-Asp [EPD]	effective

More lines, now with the values ahead:

prevention and/or inhibition of the cleavage reaction of the serpin molecules SerpinB3/B4, and/or prevention and/or inhibition of the formation of Pso p27	Substance
effective	Asp-Leu-Glu-Pro (DLEP) [tetrapeptide]
effective	Asp-Lys-Pro-Asp (DKPD) [tetrapeptide]
effective	Asp-Pro-Asn-Glu (DPNE) [tetrapeptide]
effective	Asp-Pro-Glu-Asn (DPEN) [tetrapeptide]
effective	Asp-Pro-Glu-Leu (DPEL) [tetrapeptide]
effective	Asp-Pro-Leu-Glu (DPLE) [tetrapeptide]
effective	Glu-Asn-Asp-Pro (ENDP) [tetrapeptide]
effective	Glu-Asp-Asn-Pro (EDNP) [tetrapeptide]
effective	Glu-Asp-Leu-Pro (EDLP) [tetrapeptide]
